These results are taken from paper PMC5516325, “Sequence-based identification of inositol monophosphatase-like histidinol-phosphate phosphatases (HisN) in Corynebacterium glutamicum, Actinobacteria, and beyond” (BMC Microbiology, 2017).

What all share (assay type): biochemical, Corynebacterium glutamicum
Data set [1] concerns T1, Cg0911.
T1 construct: tag-free (C-terminal intein tag self-cleaved, IMPACT system), expressed in E. coli ER2566
Description: phosphate release from HolP, malachite green; activation. As to conditions: activator (also reaction product); 500 μM HolP, 5 mM MgSO4, 1 M triethanolamine, pH 7.35, 30 °C; read-out: Half maximal stimulation.

In data set [2] the test system is T1, Cg0911. The data set is described as follows: phosphate release, malachite green; Hill equation fit. As to conditions: 5 mM MgSO4, 100 mM triethanolamine, pH 7.35, 30 °C. The text has this:
phosphate release, malachite green; Hill equation fit on Cg0911

Substrate in data set [3]: N[C@H](COP(=O)(O)O)Cc1c[nH]cn1
The data set is described as above. The note with it: 5 mM MgSO4, 100 mM triethanolamine, pH 7.35, 30 °C. The text has this:
phosphate release, malachite green; Hill equation fit on HisN (HisNCg)

`N[C@H](CO)Cc1c[nH]cn1` [L-histidinol]: the EC50 with Cg0911 [1] is 860 ± 60 µM. Turning to `N[C@H](COP(=O)(O)O)Cc1c[nH]cn1` [L-histidinol-phosphate], the Michaelis-Menten constant (Km) in the data set with Cg0911 [2] is 638 ± 70.5 µM.

B1: HisN (HisNCg) (Corynebacterium glutamicum ATCC 13032) (protein)
chain: MSKYADDLALALELAELADSITLDRFEASDLEVSSKPDMTPVSDADLATEEALREKIATARPADSILGEEFGGDVEFSGRQWIIDPIDGTKNYVRGVPVWATLIALLDNGKPVAGVISAPALARRWWASEGAGAWRTFNGSSPRKLSVSQVSKLDDASLSFSSLSGWAERDLRDQFVSLTDTTWRLRGYGDFFSYCLVAEGAVDIAAEPEVSLWDLAPLSILVTEAGGKFTSLAGVDGPHGGDAVATNGILHDETLDRLK
notes: tag-free (C-terminal intein tag self-cleaved, IMPACT system, NEB), expressed in E. coli ER2566
With B1, in data set [3], the Km worked out at 23.6 ± 1.4 µM, the kcat turned out to be 1.04 ± 0.06 s⁻¹ and the kcat/Km came to 44100 M⁻¹ s⁻¹.
